{"source": "patent US7173007", "about": "(University of California, dated 2007)", "proteins": {"B1": {"name": "His-tagged cathelin-like fusion protein (before enterokinase digestion), approximately 16 kDa (other, not shown: small tags and cut ends)", "chain": "QVLSYKEAVLRAIDGINQRSSDANLYRLLDLDPRPTMDGDPDTPKPVSFTVKETVCPRTTQQSPEDCDFKKDGLVKRCMGTVTLNQARGSFDISCDKDNKR", "notes": "also called His-tagged cathelin-like protein before cleavage; cathelin-like protein before digestion with enterokinase"}}, "biological_target": "the molecule itself", "test": "SDS-PAGE / Western blot, self-association", "description": "SDS-PAGE and immunoblotting. The purity of cathelin-like or hCAP18/LL-37 protein was first confirmed by SDS-PAGE followed by Coomassie blue and silver staining. For Western blot, protein was separated by SDS-PAGE and was then transferred to nitrocellulose membranes using the Bio-Rad system. Membranes were blocked for 1 h at room temperature with 0.1% low fat milk in 50 mM Tris-HCl, pH 7.5, 150 mM NaCl, 0.2% Tween-20, and were probed overnight at […] with chicken polyclonal anticathelin-like antibodies (1:15,000) to detect cathelin-like protein or with rabbit anti-LL-37 antibodies (1:6000) to detect full-length hCAP18/LL-37, followed by extensive washing. Immunoreactive materials were detected by enhanced chemiluminescence using horseradish peroxidase conjugated antichicken antibodies (1:20,000) or horseradish peroxidase conjugated antirabbit antibodies (1:5000)."}
{"protein": "B1", "values": [{"measurement": "binding result", "value": "binds"}]}
